The target of assay [1] is T1, recombinant soluble human IL-6 receptor (SR344) (human, UniProt P08887 20-344, biotinylated (sites not given) where immobilized via streptavidin or used in phage ELISA).
T1 construct: also called soluble IL-6 receptor; membrane-type IL-6 receptor (when biotinylated and immobilized on the chip)
T1 sequence (looked up): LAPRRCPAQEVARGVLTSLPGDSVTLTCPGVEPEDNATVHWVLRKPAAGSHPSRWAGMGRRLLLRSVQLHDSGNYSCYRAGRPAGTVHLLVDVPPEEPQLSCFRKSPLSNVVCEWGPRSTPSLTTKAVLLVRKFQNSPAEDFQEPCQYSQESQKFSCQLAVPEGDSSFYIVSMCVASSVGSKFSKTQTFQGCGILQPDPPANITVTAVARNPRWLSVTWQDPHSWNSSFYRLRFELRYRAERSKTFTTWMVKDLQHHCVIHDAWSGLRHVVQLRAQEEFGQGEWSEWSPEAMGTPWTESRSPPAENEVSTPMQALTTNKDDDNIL
The assay can be described thus: SPR Biacore T100, antibody on protein A/G chip, SR344 analyte, 37 C. How it is done:
Kinetic analyses of antigen-antibody reactions at pH 5.8 and pH 7.4 were carried out using a Biacore™ T100 surface plasmon resonance system (GE Healthcare) on the four antibodies: humanized PM1 antibody (WT) and H3pI/L73, CLH5/L73, and H170/L82 produced in Examples 2 and 4 (buffer: 10 mM MES (pH 7.4 or pH 5.8), 150 mM NaCl, and 0.05% TWEEN® 20 (polyoxyethelene sorbitan monolaurate)). Various antibodies were bound onto a sensor chip immobilized with recomb-protein A/G (Pierce) by amine coupling. SR344 adjusted to concentrations of 9.8 to 400 nM was injected to the chip as an analyte. […] All the measurements were carried out at 37° C. Association rate constants kₐ (1/Ms) and dissociation rate constants kd (1/s) were calculated using Biacore T100™ Evaluation Software (GE Healthcare), and dissociation constants KD (M) were calculated on the basis of those values (Table 5). Moreover, the ratio of the affinities at pH 5.8 and pH 7.4 were calculated for each clone to evaluate pH-dependent binding. All the measurements were carried out at 37° C.

Assay [2] has as its target T1, recombinant soluble human IL-6 receptor …. The assay can be described thus: SPR Biacore T100, biotinylated SR344 on streptavidin chip (model of membrane IL-6 receptor), antibody 0.5 ug/mL as analyte, bound at pH 7.4, dissociation at pH 5.8, 37 C. How it is done:
The binding to membrane IL-6 receptor was evaluated by evaluating the binding to the IL-6 receptor immobilized onto a sensor chip. SR344 was biotinylated according to a method known to persons skilled in the art, and the biotinylated SR344 was immobilized on the sensor chip via streptavidin by utilizing the affinity between streptavidin and biotin. All the measurements were carried out at 37° C., and the mobile phase buffer contained 10 mM MES (pH 5.8), 150 mM NaCl and 0.05% TWEEN® 20 (polyoxyethelene sorbitan monolaurate). The pH-dependent binding clones were injected therein under the condition of pH 7.4 and allowed to bind to SR344 (injection sample buffer: 10 mM MES (pH 7.4), 150 mM NaCl, 0.05% TWEEN® 20 (polyoxyethelene sorbitan monolaurate)), and the pH-dependent dissociation of each clone at the mobile phase pH of 5.8 was observed (FIG. 10).
The dissociation rate […]) at pH 5.8 was calculated using Biacore T100™ Evaluation Software (GE Healthcare) by fitting only the dissociation phase at pH 5.8, where 0.5 μg/mL of the sample was bound in 10 mM MES (pH 7.4), 150 mM NaCl, and 0.05% TWEEN® 20 (polyoxyethelene sorbitan monolaurate), and dissociated in 10 mM MES (pH 5.8), 150 mM NaCl, and 0.05% TWEEN® 20 (polyoxyethelene sorbitan monolaurate). Similarly, the dissociation rate (kd(1/s)) at pH 7.4 was calculated using Biacore T100™ Evaluation Software (GE Healthcare) by fitting only the dissociation phase at pH 7.4, where 0.5 μg/mL of the sample was bound in 10 mM MES (pH 7.4), 150 mM NaCl, and 0.05% TWEEN® 20 (polyoxyethelene sorbitan monolaurate), and dissociated in 10 mM MES (pH 7.4), 150 mM NaCl, and 0.05% TWEEN® 20 (polyoxyethelene sorbitan monolaurate).
In general terms: Surface plasmon resonance follows binding to a sensor surface in real time, without labels.

Assay [3] shares this target. Nature of the assay: SPR Biacore T100, antibody captured by anti-IgG gamma chain F(ab)2, SR344 analyte, pH 7.4, 37 C. In outline:
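Antibodies were captured on an anti-IgG γ-chain F(ab)₂ chip, with SR344 at 9.8–40 nM injected in 10 mM MES pH 7.4, 150 mM NaCl, 0.05% Tween 20, at 37° C. Real-time association/dissociation gave ka and kd, from which KD was calculated.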

Residue numbers refer to the chain shown, from its start.

B1: H3pI/L73 (antibody, IgG1, V domains shown)
VH: QVQLQESGPGLVKPSETLSLTCAVSGHSISHDHAHSWVRQPPGEGLEWIGYISYSGITNYNPSLKGRVTISRDTSKNQFSLKLSSVTAADTAAYYCARSLARTTAMDYWGEGTLVTVSS
VL: DIQMTQSPSSLSASVGDSVTITCQASQHISSHLNWYQQKPGKAPELLIYYGSHLHSGVPSRFSGSGSGTDFTFTISSLEAEDAATYYCGQGNRLPYTFGQGTKVEIE
notes: tested as IgG1; also called H3pI/L73-IgG1; H3pl/L73
As for B1, in assay [1], the “pH-dependent binding (affinity ratio) relative to WT” value turned out to be 15 fold. For the same molecule, in assay [2], the koff amounted to 0.00378 s⁻¹. In assay [3], the dissociation constant Kd is 1.4 nM, the koff turned out to be 0.00059 s⁻¹ and the kon worked out at 410000 M⁻¹ s⁻¹.

B2: H170/L82 (antibody, IgG1, V domains shown)
VH: B1 VH with D32H, N59H, S63H, S99V, T103I, Y108H
VL: B1 VL with H28D
notes: expressed and purified as IgG (IgG1); also called H170/L82-IgG1
Consider B2, for which the “pH-dependent binding (affinity ratio) relative to WT” value in assay [1] is more than 15 fold. Further, in assay [2], the koff came to 0.00144 s⁻¹.

B3: humanized PM1 antibody (wild type, WT) (antibody, human IgG1, kappa, V domains shown)
VH: QVQLQESGPGLVRPSQTLSLTCTVSGYSITSDHAWSWVRQPPGRGLEWIGYISYSGITTYNPSLKSRVTMLRDTSKNQFSLRLSSVTAADTAVYYCARSLARTTAMDYWGQGSLVTVSS
VL: DIQMTQSPSSLSASVGDRVTITCRASQDISSYLNWYQQKPGKAPKLLIYYTSRLHSGVPSRFSGSGSGTDFTFTISSLQPEDIATYYCQQGNTLPYTFGQGTKVEIKR
notes: IgG1; also called WT-IgG1; wild type humanized anti-IL-6 receptor antibody
Consider B3, for which the koff in assay [2] worked out at 0.000715 s⁻¹. In addition, in assay [3], the Kd came out at 2.7 nM, the off-rate constant (koff) came to 0.0011 s⁻¹ and the kon amounted to 400000 M⁻¹ s⁻¹.

B4: Fv4-IgG1 (antibody)
heavy: not shown
light: DIQMTQSPSSLSASVGDSVTITCQASTDISSHLNWYQQKPGKAPELLIYYGSHLLSGVPSRFSGSGSGTDFTFTISSLEAEDAATYYCGQGNRLPYTFGQGTKVEIERTVAAPSVFIFPPSDEQLKSGTASVVCLLNNFYPREAKVQWKVDNALQSGNSQESVTEQDSKDSTYSLSSTLTLSKADYEKHKVYACEVTHQGLSSPVTKSFNRGEC
notes: VH3-IgG1 / VL3-CK
Take B4: in assay [3], the dissociation constant (Kd) worked out at 1.4 nM, the koff was 0.001 s⁻¹ and the kon was 720000 M⁻¹ s⁻¹.

What is called koff is the first-order rate constant of dissociation. Usually Kd stands for the free concentration of one partner at which half of the binding sites on the other are occupied at equilibrium, for simple one-to-one binding. Broadly, the kon is the rate constant with which the complex forms.

(Values after patent US20180282719A1 (published 2018).)
